Reference: patent publication US8620595B2, “Methods for determining the retention of peptides in reverse phase chromatography using linear solvent strength theory” (University of Manitoba, priority 2010, dated 2013)

Assay: Determination of S from retention time shift Δ relative to P3 at two gradient slopes, nano-RP-HPLC MS of spiked tryptic digest
Assay type: physicochemical
Conditions: experimental S value, LC-MS runs of model peptide mixture
Method: Proteins and protein digestion. Tryptic digests of two different protein mixtures were utilized. The “test peptide mixture” contained human proteins: albumin, transferrin, fibrinogen. The “model peptide mixture” contained bovine proteins: albumin, transferrin, fibrinogen, catalase. Equimolar mixtures of the proteins were prepared, reduced with DTT, alkylated with iodoacetamide and digested with sequencing-grade modified trypsin (Promega, Madison, Wis.). Prior to nano-LC MS/MS analysis, mixtures were diluted with buffer A (0.1% formic acid in water) and spiked with the 6 standard peptides P1-P6^24 for test mixture and the set of 11 model peptides (described elsewhere^23) for a model mixture. All dilutions were performed to provide an injection of ˜100 fmole of each component into the nanoRP-HPLC MS system.
Chromatography. All chromatographic experiments were conducted at a controlled temperature of 22-23° C. For isocratic measurement of the slope values, a micro-Agilent 1100 Series system (Agilent Technologies, Wilmington, Del.), was used with a 1 mm×100 mm 5 μm Luna C18(2) (Phenomenex, Torrance, Calif.) column and a UV detector operated at 214 nm. Both eluents A (water) and B (acetonitrile) contained 0.1% formic acid as ion-pairing modifier. Stock solutions of the 11 standard peptides (˜1 mg/ml) were prepared by dissolving each peptide in 1 ml of 0.1% FA in water or a 20% acetonitrile solution. Ten microliters of sample was injected. Individual peptides were diluted to provide ˜0.5-1 μg injection of each component using a 10 μl loop. The dead volume of the column and connecting tubings was determined by injecting a non-retained compound (water) and measuring the elution time of the negative peak at a 150 μL/min flow rate. Retention factors for isocratic elution were calculated using the formula: k=(tR−t0)/t0c; where tR is the retention time, t0 is the system (column and tubings) dead time, and t0c is the column dead time. Additional details of measuring S-values via constructing log k vs. φ plots are provided elsewhere.^24 The nano-LC MS/MS experiments were conducted using splitless Tempo LC system (Eksigent, Dublin, Calif.) with 20 μL sample injection via a 300 μm×5 mm PepMap100 (Dionex, Sunnyvale, Calif.) trap-column and a 100 μm×200 mm analytical column packed with 5 μm Luna C18(2) (Phenomenex, Torrance, Calif.). Tryptic digests of the mixtures were spiked with calibrating peptides (see Table 1) as described above, injected on the trap-column using buffer A as a carrier and separated using 0.1875, 0.375 and 0.75 percent acetonitrile per minute linear gradients starting from 0.5% acetonitrile at 500 nL/min flow rate. The composition of both eluents A and B was identical to one described above for normal-flow system. Gradient programs consisted of a 0.5-40% linear increase of buffer B in 213.2, 106.6 and 53.3 minutes, respectively. After each run the gradient columns were washed with 80% B for 3 minutes and equilibrated with the starting A:B ratio for 18 minutes.
Mass spectrometry. A QStar Elite mass spectrometer (Applied Biosystems, Foster City, Calif.) equipped with a MicrolonSpray II source was used in standard MS/MS information dependent acquisition (IDA) mode for LC-ESI analyses. Protein identification was performed using Protein Pilot 3.0 (Applied Biosystems, Foster City, Calif.) with a restricted database containing target protein sequences and the sequences of standard peptides. Retention times of identified species (peak maxima) were assigned manually.
These two ways of measurement have been combined to provide a highly accurate and fast way of determining S for an extensive sets of peptides (see FIG. 3). First, precise isocratic measurement of S is performed in normal flow conditions with UV detection for a set of synthetic “S-calibrating” peptides. […]

Substance	Slope (experimental)
YYGYTGAFR	29.343
EPISVSSQQMLK	33.2
WDPYK	26.36
ESGLYFIRPLK	30.232
IETMR	37.108
LYKELPDPQESIQR	39.098
DAQLFIQK	24.282
VPQVSTPTLVEVSR	33.745
TSSSTFQYITLLK	29.703
LGAPSITCVR	32.708
IRPYFPEQ	28.791
IVNLR	29.724
LLSLLDFR	24.464
RTPIAVR	39.365
ELPDPQESIQR	34.299
LCVLHEK	34.16
GYLAVAVVK	27.811
RLCENIAGHLK	40.229
LLGGSLSSLHAAFR	34.021
SQLQEAPLEWK	28.576
LVNELTEFAK	27.906
LSQKFPK	38.913

Substance	Slope (experimental)
NLNREDFR	36.957
ETTVFENLPEKADR	34.533
LESDVSTQMEYCR	35.968
VFEHIGKR	41.112
VGDANPALQK	38.388
WQWR	22.398
TSTADYASFK	30.833
RAFALECIR	31.043
DNPQTHYYAVAVVK	34.815
LRDSLFNYQK	31.66
TPCTVTCNIPVVSGK	34.721
LAGGSASSAHAAFR	42.588
IHLISTQSTIPYVLR	35.386
CLMEGAGDVAFVK	30.666
LLGSLSLHAFR	31.94
ECHLAQVPSHAVVAR	44.148
LAGSASADAFR	32.092
NECFLSHKDDSPDLPK	41.14
HLVDEPQNLIK	35.894
EGFGHLSPTGNTEFWLGNEK	36.558
GSNFQLDQLQGR	30.314
AFALECIR	26.057

Substance	Slope (experimental)
TSDANINWNNLK	30.109
IQALLDKYNEEKPKN	40.038
LLLLDFR	23.297
YQLSVSK	31.531
ILESGPFVSCVK	29.323
LLVLAHFR	28.115
LLSAAHFR	32.998
IQLEDWNGR	27.849
VDLEDYK	28.987
VYCDMK	35.652
NLRETAEEVK	40.778
WCAIGHQER	35.992
LCQLCAGK	34.229
QVLLHQQALFGK	33.087
RPCFSALTPDETYVPK	38.129
CLASIAK	30.212
NIVELMR	24.282
KYAAELHLVHWNTK	39.205
ESPQTHYYAVAVVK	36.262
EYEATLEECCAK	35.459
EKYYGYTGAFR	34.957
YLTTLK	27.604

Substance	Slope (experimental)
YETLISTHESTIR	36.09
VVQLEANCQEPCQDTVK	39.579
FFSASCVPCIDR	32.333
LAGGSASSADAAFR	34.509
IPSKVDSALYLGSR	35.773
LVTDLTK	28.077
ILNKQQDDFGK	40.011
QTALVELLK	24.2
FPTIPLSR	27.325
IQALLDKYNEEKPK	40.311
FSTVAGESGSADTVRDPR	44.208
NTVDSVSR	40.092
CLQDGAGDVAFVK	31.382
DTDFKLNELR	30.459
LKECCDKPLLEK	42.82
FLQEIYNSNSQK	30.666
LLSLADFR	25.239
KPVTDAENCHLAR	48.023
SILENLR	24.865
SMMEEIMK	25.394

Same assay, conditions: experimental S, LC-MS runs of model peptide mixture, formic acid

Substance	Slope (experimental)
GNLDDFFHR	26.957
TGLAPEFAALGESGSSSSK	28.402
FYTEDGNVVOLVGNNTPIFFIR (FYTEDGNWDLVGNNTPIFFIR)	31.467
FDEFFSAGCAPGSPR	28.654
QDGSVDFGR	28.518
DSADGFLKIPSK	30.089
DALLFPSFIHSQKR	30.728
DKDDFFTR	25.342
GEADALNLDGGYIYTAGK	31.382
LLCLDGTR	25.325
CACSNHEPYFGYSGAFK	35.846
MVLETFGGDGHAR	31.001
ECCHGDLLECADDR	34.957
AAQKPDVLTTGGGNPVGDKLNSLTVGPR	41.986
KGSNFQLDQLQGR	33.883
QGFGNIATNAEGKK	37.184
GDKVTALYEGFTVQNEANK	35.1
TSHMDCIK	40.393
HSTVFDNLPNPEDRK	36.807
GTGKECVPNSNER	48.911
YNGVFQECCQAEDK	32.73
KANEGLTWNSLK	31.085
SIEDLR	28.058
KENFEVLCK	27.567

Substance	Slope (experimental)
DGPLTGTYR	28.947
VTALYEGFTVQNEANK	30.77
EEGSVSSGTKQEFHTGK	48.449
ANEGLTWNSLKDK	32.686
RLDGSLDFK	29.845
RHPEYAVSVLLR	32.553
SLHTLFGDELCK	30.438
GAGAFGYFEVTHDITR	33.608
SFQLFGSPPGQR	24.764
ECVPNSNER	44.66
DLLFR [tryptic peptide detected in the model peptide mixture]	18.36
DDPHACYSTVFDKLK	35.483
KANEGLTWNSLKDK	35.507
LAIGEGQQHQLGGAK	39.74
KQTALVELLK	27.642
DFPIANGER	26.539
DNCCILDER	28.077
DDSPDLPK	30.875
CLVEK	27.661
DLLFK [tryptic peptide detected in the model peptide mixture]	18.223
ELLIDNEK	25.018
WCTISTHEANK	37.234
VVWCAVGPEEQKK	33.2
SVDGKEDLIWK	30.068

Same assay, conditions: model peptide mixture (tryptic digest of bovine proteins), 0.75 and 0.1875% acetonitrile per minute gradients, formic acid, S from Δ vs. S curve of S-calibrating peptides

Substance	experimental S-value
DLLFR [tryptic peptide detected in the model peptide mixture]	18.4
DLLFK [tryptic peptide detected in the model peptide mixture]	18.2
